One series has as its target T1, BCL-XL (Homo sapiens, UniProt Q07817).
T1 construct: endogenous in cells; host or cells: cells transfected with SQT-BH3 mRNA (HeLa by context)
Nature of the series: Co-immunoprecipitation after mRNA transfection. The class given is binding. Conditions: within two hours after mRNA transfection.

The target of the next series is T2, MCL-1 (Homo sapiens, UniProt Q07820).
T2 construct: performed in lysates of HeLa cells transfected with mRNAs encoding SQT-BH3 constructs; endogenous in cells; host or cells: HeLa
As to the kind of experiment: Co-immunoprecipitation in lysates of transfected HeLa cells. The following applies: lysates of HeLa cells transfected with mRNAs. The class given is binding.

The subject of series [1] is human melanoma cells (A375). As to the kind of experiment: Cell death after mRNA transfection. The class given is cell-based.
In series [2] the test system is human hepatocellular carcinoma (Hep G2) cells. Nature of the series: Cell death and morphology after mRNA transfection. The class given is cell-based. The source says: A representative graph of the apoptotic ability of the SQT-BH3 constructs is shown in FIG. 2, showing the cell killing capacity of the SQT-BH3 constructs in Hep G2 cells.
The test system of another series is Hep3B cells. Nature of the series: Cell death by YOYO-3 with MC3-formulated LNPs. The class given is cell-based. Conditions: relatively high concentration. On the procedure:
The efficacy of mRNAs encoding SQT-BH3 constructs in inducing cell death was tested both in hepatocellular carcinoma cell lines as well as in primary hepatocytes using lipid nanoparticle (LNP)-formulated constructs. Hep3B cells were treated with varying doses (0.78 ng to 50 ng) of MC3-formulated LNPs in the presence of YOYO-3 (Life Technologies), a DNA dye that is taken up preferentially by dead cells that is used to measure the extent of cell death. MC3 lipid nanoparticles included MC3 50%, DSPC 10%, Cholesterol 38.5%, PEG-DMG 1.5%, N:P ˜5.5.

A further series concerns HepG2 cells. Nature of the series: Cell death by YOYO3 with MC3 LNPs. The class given is cell-based.
A further series concerns primary hepatocytes. Nature of the series: Apoptosis induction by MC3 LNP-formulated mRNAs in primary hepatocytes cultured in vitro. The class given is cell-based.
Series [3] can be described thus: Survival of mice treated with MC3 LNP formulations of mRNA with or without miR-122 binding site. The class given is in vivo. The source says:
Negative controls included mRNA encoding SQT alone or SQT with a miR-122 binding site. Constitutively active caspase 6 was used as a positive control. An LNP containing a non-translatable factor IX cap 0 mRNA was used to control for mRNA and lipid effects that might be independent of the proteins encoded by the modified mRNAs. […] This dose was 10 times greater than a dose of mRNA encoding SQT-PUMA-BH3 that killed 40% of mice.

Series [4] has as its system primary mouse hepatocytes. As to the kind of experiment: Sorafenib combination in primary mouse hepatocytes. Conditions: SQT-PUMA-BH3 205 pM or 1100 pM, SQT-Bad-BH3 549 pM or 1100 pM, sorafenib 0-10 uM. The class given is cell-based. On the procedure:
Similar combination experiments were performed with primary mouse hepatocytes, treated with SQT-PUMA-BH3 (205 pM or 1100 pM) or SQT-Bad-BH3 (549 pM or 1100 pM) in combination with sorafenib (0-10 μM). […] Thus, normal primary liver cells are spared by the combination treatment, indicating the combination treatment can selectively kill liver cancer cells over normal liver cells.

The test system of another series is Hep3b xenografts. Nature of the series: Efficacy in SCID mice bearing subcutaneous Hep3B xenografts. The class given is in vivo. Conditions: SC Hep3B, 2mpk or 3mpk weekly (Day 1 and Day 8), mmRNA with miR-122 binding site in MC3 LNPs (1.5% DSPE). On the procedure:
LNPs comprising the cationic lipid MC3 were tested using the optimal molar percentage of PEG-lipid and optimal PEG length (1.5% DSPE, C18, as described in Example 10), for in vivo targeted delivery of SQT-PUMA-BH3.
SCID mice were dosed weekly (Day 1 and Day 8) over a two week period with mmRNA encoding SQT-PUMA-BH3 (comprising a miR-122 binding site), as described above.

A further series concerns systemic TF1a tumors. As to the kind of experiment: Repeat study in the TF1a-SCID model with survival endpoint. The class given is in vivo. The protocol:
In this repeat study, tumor growth inhibition (TGI) was the primary efficacy over the first 4 weeks of the study and survival was the primary efficacy endpoint over the second 4 weeks of the study. […] Animals were dosed as follows: PBS (0.1 ml/20 g one time per week) IV (Group 1), cytarabine IV at 2 mg/kg three times per week (Group 2), LNPs containing mRNA encoding Green Fluorescent Protein (GFP) at 3 mg/kg one time per week (Group 3) and LNPs containing mRNA encoding SQT-PUMA-BH3 (comprising a miR122 binding site) at 3 mg/kg one time per week (Group 4).
Mice were dosed intravenously for four weeks, with animals in Group 4 being dosed for eight weeks (i.e., weekly dosing up to eight weeks).
In this repeat study, tumor growth inhibition (TGI) was again used as a primary endpoint to quantify efficacy with BLI being used as a surrogate for tumor burden. Bioluminescence Imaging (BLI) was measured weekly out to at least Day 61 post disease induction. The mean BLI results at Day 33 and Day 61 are shown in FIGS. 23A and 23B, respectively.
The survival of the mice over eight weeks was monitored and the percent survival of the mice in the study was assessed.

Entries after “also recorded” stand apart in the source; their conditions may differ. Some results are limits rather than exact numbers.

T2 sequence (Q07820 whole entry): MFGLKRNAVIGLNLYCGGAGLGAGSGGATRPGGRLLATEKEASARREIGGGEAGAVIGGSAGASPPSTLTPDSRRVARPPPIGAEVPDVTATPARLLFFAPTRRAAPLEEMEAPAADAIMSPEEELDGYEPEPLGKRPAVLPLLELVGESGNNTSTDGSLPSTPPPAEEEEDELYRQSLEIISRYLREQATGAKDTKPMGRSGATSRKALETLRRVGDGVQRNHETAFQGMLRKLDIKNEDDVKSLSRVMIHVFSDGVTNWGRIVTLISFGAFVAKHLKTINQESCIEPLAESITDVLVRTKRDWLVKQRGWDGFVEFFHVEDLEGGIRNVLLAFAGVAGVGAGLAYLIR
T1 sequence (Q07817 whole entry): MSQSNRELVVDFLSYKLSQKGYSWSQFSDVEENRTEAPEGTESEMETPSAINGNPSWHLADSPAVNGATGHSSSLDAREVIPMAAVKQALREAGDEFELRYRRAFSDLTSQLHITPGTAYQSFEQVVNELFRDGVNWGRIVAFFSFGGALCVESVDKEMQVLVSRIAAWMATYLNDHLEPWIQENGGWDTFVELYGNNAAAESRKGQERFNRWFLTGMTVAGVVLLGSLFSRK

B1: SQT-PUMA-BH3: mRNA (SEQ ID NO: 49, FLAG) encoding SQT scaffold with PUMA BH3 domain in N-terminus, fully modified with 1-methyl-pseudouridine (nucleic acid)
chain: ATGATCCCAAGAGAAGAACAGTGGGCACGCGAAATTGGAGCTCAACTCAGACGGATGGCCGACGACCTGAACGCCCAGTACGAGCGGCGGGGACTCTCAGAAGCGAAGCCTGCCACCCCCGAAATCCAGGAAATCGTCGACAAGGTCAAGCCGCAGCTTGAGGAAAAGACCAACGAGACTTACGGAAAACTGGAGGCCGTGCAGTATAAGACCCAAGTGTTGGCCTCCACCAACTACTACATTAAGGTCCGCGCCGGCGATAACAAGTACATGCACCTGAAGGTGTTCAATGGTCCTCCGGGACAGAACGCGGACAGGGTGCTGACTGGCTACCAAGTGGACAAGAACAAGGACGACGAGCTGACGGGCTTCGACTACAAGGATGATGATGACAAA
modifications: FLAG tag, 1-methyl-pseudouridine; Synthetic SQT-PUMA-BH3 mRNA sequence with FLAG epitope tag
Turning to B1, the “interaction with BCL-XL by co-immunoprecipitation” value with BCL-XL is listed as “able interact”. Further, the “co-immunoprecipitation of MCL-1” value with MCL-1 is “able to co-immunoprecipitate”. The cell death entry in series [1] is “caused rapid cell death almost immediately following transfection”. For the same molecule, in series [2], the cell death entry is on record as “caused rapid cell death almost immediately following transfection; also recorded: underwent cell death almost immediately following transfection” and the cell morphology entry is listed as “rounded-up cell morphology that is characteristic of apoptotic cells”. Further, in the series on Hep3B cells, the “apoptosis and cell death (YOYO-3)” value is “both induced apoptosis and cell death; also recorded: kills Hep3B cells at higher concentrations”; the “efficacy and timing of cell killing, comparison” value is “showed a modest increase in both the efficacy and timing of cell killing compared to SQT-Bim-BH3”. The “cell death (YOYO3 staining)” value in the series on HepG2 cells is reported as “lead to cell death; also recorded: kills HepG2 cells”. Also, the PARP-1 cleavage entry in the series with primary hepatocytes (LNPs) is “also induced PARP-1 cleavage in primary hepatocytes”. Also, in the series on primary hepatocytes (MC3-LNP-formulated), the “apoptosis (YOYO-3 dye uptake and fluorescence) as a function of time” value is “induce apoptosis”. Further, in series [3] (mRNA without miR-122 binding site, dose 10 times lower than 1 mg/kg), the mice killed was found to be 40%. For the same molecule, the “toxicity / tolerable dose / survival” value in [3] (mice, MC3 LNP formulations, 0.1-3 mg/kg) was “very toxic over a range of doses”. Besides, in series [3] (mice, MC3 LNP, mRNA without miR-122 binding sites, range of doses), the “death of the treated animals, time” value is no more than 5 h. In addition, the survival rate entry in series [3] (mice, lowest dose of 0.1 mg/kg, mRNA without miR-122 binding sites) was “approximately 60%”. In series [4], the “apoptosis in combination with sorafenib” value is on record as “neither SQT-BH3 construct, in combination with sorafenib, caused apoptosis”. In the series with Hep3b xenografts, the “tumor growth inhibition (TGI)” value is “significantly greater TGI than the mice treated with PBS alone”. In addition, the “percent body weight change / tolerability” value in the series with systemic TF1a tumors is reported as “did not significantly impact body weight”. Further, the “tumor growth (BLI)” value with systemic TF1a tumors (3 mg/kg one time per week, 3 mg/kg) was “showed marked tumor growth regression as compared to both PBS and LNP controls; also recorded: most effective treatment for inhibiting tumor growth, showing greater efficacy than the cytarabine SOC control”. Further, the median survival result in the series on systemic TF1a tumors (post-implant, 3 mg/kg one time per week) is given as “median survival had not yet been reached”.
